This is an account of results in the DeepSol protein solubility set.

This data set is described as follows: soluble on expression in E. coli; label from the status in PepcDB or PDB records.
On to “SLFHLLGAQQNQKLKRRRFFCPVCGGELAVKLGLQKAPHFAHKQNKSCAIDIEPESAYHLEGKRQLYVWLKTQRASPILEPYIRTINQRPDVMARIKEHMLAVEYQCATIAPDVFQKRTEGFKQEGIIPQWIMGYSRLKRTASSFYQLSTFHWQFINASPYRELICYCPERRSFLRLSHIIPFYTNHSYSSVQTIPIHRAGAGDLFFTEPKPSIQYSGWTKAIHRFRHKPHRFNSKETNRLRLLFYEKRQTPFSFLPTEVFVPVRKGAVFKSPVFVWQGFLYLFMTDLGGKRAPIRFSAVLQQCKLHIHNKNIALRSECSEECLSEAVKQYIDFLCKKGFLRETQKEVYVLNQPAGGIHSMQDLIERDRSCFIE”, for which the “soluble on expression in E. coli” value was “soluble”.
In the case of “MSLSHSEAGQAASVRRVLAVIPARGGSKGVPAKNLLPVGGVPLVARAVRECRATRLVTDVVVSTDDHAIAAAAREAGAEVVLRPAAIAGDTATSEAAVLHAMDTHEALHGAAVDVVLLVQCTSPFIVREDVDGVVHAIVGKGADTALTVAPFHGFVWRDADDAPGALGAERAAVEGGTDTLVTGTATSGGYGINHDKSFRPRRQDRPQDLLETGAVYGMDATGFREARHRFFGRTELVRTDPARVLEIDDPHDLARARALAPLFDANRPGALPTAEDIDAVVLDFDGTQTDDRVLIDSDGREFVSVHRGDGLGIAALRKSGLTMLILSTEQNPVVAARARKLKIPVLHGIDRKDLALKQWCEEQGIAPERVLYVGNDVNDLPCFALVGWPVAVASAHDVVRGAARAVTTVPGGDGAIREIASWILGPSLDSLDKEGHHHHHH”, the “soluble on expression in E. coli” value was “soluble”.
As for “MALSHSVKERTISENSLIILLQGLQGQITTVDLRDESVARGRIDNVDAFMNIRLANVTYTDRWGHQVELDDLFVTGRNVRYVHIPDGVDITATIEQQLQIIHRVRNFGGKGQGRREFPSKRP”, the “soluble on expression in E. coli” value is reported as “soluble”.
For the sequence “MARLNVKPTRMELSNLKNRLKTATRGHKLLKDKRDELMRRFVDLIRENNELRQTLEKELAANMKEFVLAKASENSLMVEELFAVPVHEVTLWIDIENIMSVNVPKFHVQSNTAREQEQGEFAYSYLSSNSEMDNTIQKTKELLEKLLRLAEVEKTCQLMADDIEKTRRRVNGLEYSIIPQLEETIHYIELKLEEAERASLVRIMKITSLEHHHHHH”, the “soluble on expression in E. coli” value is recorded as “not soluble”.
The same measure for “MDKRLLKRLSAPLLAAALWTIPLHSHADTQPLTSQDTKLLTSQIVDQYAEHIFYNSGAVGMALVVIDNNQVVNRSFGETQPGNNIRPRPDSLIRIASITKLMTSEIMVKLADDGIVKLTDPLKKYAPKGVNVPSYSAKQPIRLLHLASHTSGLPREQPGGPQKRPVFTWPTKDNRWQWLKLAKVTVPPGVKAAYSNLAYDLLADALSRAAGKPYAHLLRDKITAPLGMKNTTLTPTAEQCKRLMIGVGSSRCGNTVAAAGSGGIYSTPEDMQHWMQQFLASDNSAPKRSAKREQALYFQRGDLVSLKGMDVAGQADALGLGWVYMAPKADLPGIMQKTGGGGGFITYMAMVPEKNIGVFVVVTRSQLTKFSNMSDGVNQLVAELVKNH”: “not soluble”; for “MIRFEQVSKAYLGGRQALQGVDFHLRPAEMAFLTGHSGAGKSTLLKLICGIERPSAGHIWFGGHDISRLKNREVPFLRRQIGMIFQDHHLLLDRTVYDNVAMPLIIAGASSEDIRRRVSAALDKVGLLDKAKNFPIQLSGGEQQRVGIARAVVNKPAVLLADEPTGNLDDALSEGILRLFEEFNRVGVTVLMATHDTSLIARRRYPILTLSQGRMSGAHHGE”: “not soluble”; for “MAHHHHHHMVENKSKVKDISLAPFGKMQMEISENEMPGLMRIREEYGKDQPLKNAKITGCLHMTVECALLIETLQKLGAQIRWCSCNIYSTADYAAAAVSTLENVTVFAWKNETLEEYWWCVESALTWGDGDDNGPDMIVDDGGDATLLVHKGVEYEKLYEEKNILPDPEKAKNEEERCFLTLLKNSILKNPKKWTNIAKKIIGVSEETTTGVLRLKKMDKQNELLFTAINVNDAVTKQKYDNVYGCRHSLPDGLMRATDFLISGKIVVICGYGDVGKGCASSMKGLGARVYITEIDPICAIQAVMEGFNVVTLDEIVDKGDFFITCTGNVDVIKLEHLLKMKNNAVVGNIGHFDDEIQVNELFNYKGIHIENVKPQVDRITLPNGNKIIVLARGRLLNLGCATGHPAFVMSFSFCNQTFAQLDLWQNKDTNKYENKVYLLPKHLDEKVALYHLKKLNASLTELDDNQCQFLGVNKSGPFKSNEYRY”: “soluble”.
